Tests used:
CCR4 [1] = biological target: T1, CCR4 (Homo sapiens, UniProt P51679); assay: PathHunter eXpress CCR4 CHO-K1 β-Arrestin GPCR Assay, agonist format; type: cell-based
T1 construct: host or cells: CHO-K1
T1 sequence (P51679 1-360): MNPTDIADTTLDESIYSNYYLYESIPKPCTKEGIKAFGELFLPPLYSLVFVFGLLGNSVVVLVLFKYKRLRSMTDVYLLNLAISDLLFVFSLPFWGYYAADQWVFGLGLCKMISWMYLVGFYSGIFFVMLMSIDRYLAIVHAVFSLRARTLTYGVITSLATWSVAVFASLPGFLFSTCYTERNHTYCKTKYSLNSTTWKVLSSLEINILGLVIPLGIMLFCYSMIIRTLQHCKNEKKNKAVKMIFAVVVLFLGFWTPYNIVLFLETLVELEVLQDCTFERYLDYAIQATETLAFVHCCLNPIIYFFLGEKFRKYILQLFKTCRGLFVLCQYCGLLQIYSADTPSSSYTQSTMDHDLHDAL
Procedure: (§1) The aim of the present experiment was to analyze if if these peptides are functional using a Discoverx Assay, the Beta-Arrestin recruitment assay, to identify agonism or antagonism in the selected peptides.
(§2) Standard protocols used: • PathHunter® eXpress CCR4 CHO-K1 β-Arrestin GPCR Assay. 100 dp (1×96-well)
(§3) The experiment was carried using the manufacturer instructions.
The concentration was increased to test for response at high concentration.

CCR4 [2] = biological target: T1, CCR4; assay: PathHunter eXpress CCR4 CHO-K1 β-Arrestin GPCR Assay, antagonist format with CCL22; type: cell-based
Procedure: as §1, §2, §3
We therefore used the assay in an antagonist format, using 10 nM CCL22.
We repeated this experiment lowering the concentration of CCL22 from 10 nM to 1 nM to show a full inhibition curve.

## ACPLMSSVNCTAGCA [24-13-00-N001, bicyclic peptide ligand, TBMB scaffold, from CCR4 cell-based selection]
CCR4 [1]; 0.006 nM
  Raw Data: 27634
CCR4 [1]; 0.02 nM
  Raw Data: 30705
CCR4 [1]; 0.06 nM
  Raw Data: 30335
CCR4 [1]; 0.17 nM
  Raw Data: 31512
CCR4 [1]; 0.51 nM
  Raw Data: 31217
CCR4 [1]; 1.5 nM
  Raw Data: 34513
CCR4 [1]; 4.6 nM
  Raw Data: 29431
CCR4 [1]; 13.9 nM
  Raw Data: 24436
CCR4 [1]; 41.7 nM
  Raw Data: 23071
CCR4 [1]; 125 nM
  Raw Data: 22524
CCR4 [1]; 375 nM
  Raw Data: 20081
CCR4 [1]; high concentration, 0.001 uM
  Raw Data: 11252
CCR4 [1]; high concentration, 0.003 uM
  Raw Data: 11640
CCR4 [1]; high concentration, 0.008 uM
  Raw Data: 12612
CCR4 [1]; high concentration, 0.023 uM
  Raw Data: 12684
CCR4 [1]; high concentration, 0.1 uM
  Raw Data: 13168
CCR4 [1]; high concentration, 0.2 uM
  Raw Data: 13560
CCR4 [1]; high concentration, 0.6 uM
  Raw Data: 12989
CCR4 [1]; high concentration, 1.9 uM
  Raw Data: 12391
CCR4 [1]; high concentration, 5.6 uM
  Raw Data: 12460
CCR4 [1]; high concentration, 16.7 uM
  Raw Data: 12506
CCR4 [1]; high concentration, 50 uM
  Raw Data: 11512
CCR4 [2]; 1 nM CCL22, 0.001 uM
  Raw Data: 229814
CCR4 [2]; 1 nM CCL22, 0.003 uM
  Raw Data: 230497
CCR4 [2]; 1 nM CCL22, 0.008 uM
  Raw Data: 210841
CCR4 [2]; 1 nM CCL22, 0.023 uM
  Raw Data: 219415
CCR4 [2]; 1 nM CCL22, 0.1 uM
  Raw Data: 218869
CCR4 [2]; 1 nM CCL22, 0.2 uM
  Raw Data: 228712
CCR4 [2]; 1 nM CCL22, 0.6 uM
  Raw Data: 229977
CCR4 [2]; 1 nM CCL22, 1.9 uM
  Raw Data: 190843
CCR4 [2]; 1 nM CCL22, 5.6 uM
  Raw Data: 200574
CCR4 [2]; 1 nM CCL22, 16.7 uM
  Raw Data: 156536
CCR4 [2]; 1 nM CCL22, 50 uM
  Raw Data: 114497
CCR4 [2]; 10 nM CCL22, 0.001 uM
  Raw Data: 195228
CCR4 [2]; 10 nM CCL22, 0.003 uM
  Raw Data: 200825
CCR4 [2]; 10 nM CCL22, 0.008 uM
  Raw Data: 201223
CCR4 [2]; 10 nM CCL22, 0.023 uM
  Raw Data: 183445
CCR4 [2]; 10 nM CCL22, 0.1 uM
  Raw Data: 170995
CCR4 [2]; 10 nM CCL22, 0.2 uM
  Raw Data: 195355
CCR4 [2]; 10 nM CCL22, 0.6 uM
  Raw Data: 181254
CCR4 [2]; 10 nM CCL22, 1.9 uM
  Raw Data: 194535
CCR4 [2]; 10 nM CCL22, 5.6 uM
  Raw Data: 180947
CCR4 [2]; 10 nM CCL22, 16.7 uM
  Raw Data: 179127
CCR4 [2]; 10 nM CCL22, 50 uM
  Raw Data: 133745

## ACQTLCNTAEDIRCA [24-16-00-N001, bicyclic peptide ligand, TBMB scaffold, from CCR4 cell-based selection]
CCR4 [1]; 0.006 nM
  Raw Data: 23153
CCR4 [1]; 0.02 nM
  Raw Data: 23757
CCR4 [1]; 0.06 nM
  Raw Data: 25748
CCR4 [1]; 0.17 nM
  Raw Data: 25062
CCR4 [1]; 0.51 nM
  Raw Data: 25030
CCR4 [1]; 1.5 nM
  Raw Data: 24736
CCR4 [1]; 4.6 nM
  Raw Data: 22899
CCR4 [1]; 13.9 nM
  Raw Data: 20756
CCR4 [1]; 41.7 nM
  Raw Data: 20583
CCR4 [1]; 125 nM
  Raw Data: 20012
CCR4 [1]; 375 nM
  Raw Data: 20361
CCR4 [1]; high concentration, 0.001 uM
  Raw Data: 10927
CCR4 [1]; high concentration, 0.003 uM
  Raw Data: 11906
CCR4 [1]; high concentration, 0.008 uM
  Raw Data: 12502
CCR4 [1]; high concentration, 0.023 uM
  Raw Data: 12701
CCR4 [1]; high concentration, 0.1 uM
  Raw Data: 13482
CCR4 [1]; high concentration, 0.2 uM
  Raw Data: 13403
CCR4 [1]; high concentration, 0.6 uM
  Raw Data: 14951
CCR4 [1]; high concentration, 1.9 uM
  Raw Data: 14247
CCR4 [1]; high concentration, 5.6 uM
  Raw Data: 14263
CCR4 [1]; high concentration, 16.7 uM
  Raw Data: 13237
CCR4 [1]; high concentration, 50 uM
  Raw Data: 13817
CCR4 [2]; 1 nM CCL22, 0.001 uM
  Raw Data: 244145
CCR4 [2]; 1 nM CCL22, 0.003 uM
  Raw Data: 250550
CCR4 [2]; 1 nM CCL22, 0.008 uM
  Raw Data: 249215
CCR4 [2]; 1 nM CCL22, 0.023 uM
  Raw Data: 247868
CCR4 [2]; 1 nM CCL22, 0.1 uM
  Raw Data: 246609
CCR4 [2]; 1 nM CCL22, 0.2 uM
  Raw Data: 225038
CCR4 [2]; 1 nM CCL22, 0.6 uM
  Raw Data: 213774
CCR4 [2]; 1 nM CCL22, 1.9 uM
  Raw Data: 213016
CCR4 [2]; 1 nM CCL22, 5.6 uM
  Raw Data: 186217
CCR4 [2]; 1 nM CCL22, 16.7 uM
  Raw Data: 150731
CCR4 [2]; 1 nM CCL22, 50 uM
  Raw Data: 107480
CCR4 [2]; 10 nM CCL22, 0.001 uM
  Raw Data: 155442
CCR4 [2]; 10 nM CCL22, 0.003 uM
  Raw Data: 169611
CCR4 [2]; 10 nM CCL22, 0.008 uM
  Raw Data: 142089
CCR4 [2]; 10 nM CCL22, 0.023 uM
  Raw Data: 158472
CCR4 [2]; 10 nM CCL22, 0.1 uM
  Raw Data: 157585
CCR4 [2]; 10 nM CCL22, 0.2 uM
  Raw Data: 159872
CCR4 [2]; 10 nM CCL22, 0.6 uM
  Raw Data: 147765
CCR4 [2]; 10 nM CCL22, 1.9 uM
  Raw Data: 143871
CCR4 [2]; 10 nM CCL22, 5.6 uM
  Raw Data: 140714
CCR4 [2]; 10 nM CCL22, 16.7 uM
  Raw Data: 167890
CCR4 [2]; 10 nM CCL22, 50 uM
  Raw Data: 138655

## ACLNGCRNTNSQCA [24-11-00-N001, bicyclic peptide ligand, TATA scaffold, from CCR4 cell-based selection]
CCR4 [1]; 0.006 nM
  Raw Data: 24609
CCR4 [1]; 0.02 nM
  Raw Data: 24123
CCR4 [1]; 0.06 nM
  Raw Data: 27885
CCR4 [1]; 0.17 nM
  Raw Data: 25757
CCR4 [1]; 0.51 nM
  Raw Data: 27976
CCR4 [1]; 1.5 nM
  Raw Data: 27602
CCR4 [1]; 4.6 nM
  Raw Data: 26096
CCR4 [1]; 13.9 nM
  Raw Data: 22941
CCR4 [1]; 41.7 nM
  Raw Data: 22581
CCR4 [1]; 125 nM
  Raw Data: 22195
CCR4 [1]; 375 nM
  Raw Data: 19528
CCR4 [1]; high concentration, 0.001 uM
  Raw Data: 9494
CCR4 [1]; high concentration, 0.003 uM
  Raw Data: 10549
CCR4 [1]; high concentration, 0.008 uM
  Raw Data: 10183
CCR4 [1]; high concentration, 0.023 uM
  Raw Data: 11338
CCR4 [1]; high concentration, 0.1 uM
  Raw Data: 11394
CCR4 [1]; high concentration, 0.2 uM
  Raw Data: 12202
CCR4 [1]; high concentration, 0.6 uM
  Raw Data: 11009
CCR4 [1]; high concentration, 1.9 uM
  Raw Data: 11006
CCR4 [1]; high concentration, 5.6 uM
  Raw Data: 10444
CCR4 [1]; high concentration, 16.7 uM
  Raw Data: 10968
CCR4 [1]; high concentration, 50 uM
  Raw Data: 9993
CCR4 [2]; 1 nM CCL22, 0.001 uM
  Raw Data: 139740
CCR4 [2]; 1 nM CCL22, 0.003 uM
  Raw Data: 146107
CCR4 [2]; 1 nM CCL22, 0.008 uM
  Raw Data: 158208
CCR4 [2]; 1 nM CCL22, 0.023 uM
  Raw Data: 155622
CCR4 [2]; 1 nM CCL22, 0.1 uM
  Raw Data: 132431
CCR4 [2]; 1 nM CCL22, 0.2 uM
  Raw Data: 136037
CCR4 [2]; 1 nM CCL22, 0.6 uM
  Raw Data: 141369
CCR4 [2]; 1 nM CCL22, 1.9 uM
  Raw Data: 129872
CCR4 [2]; 1 nM CCL22, 5.6 uM
  Raw Data: 110179
CCR4 [2]; 1 nM CCL22, 16.7 uM
  Raw Data: 106271
CCR4 [2]; 1 nM CCL22, 50 uM
  Raw Data: 85131
CCR4 [2]; 10 nM CCL22
  IC80: 9.29 µM
CCR4 [2]; 10 nM CCL22, 0.001 uM
  Raw Data: 164482
CCR4 [2]; 10 nM CCL22, 0.003 uM
  Raw Data: 157449
CCR4 [2]; 10 nM CCL22, 0.008 uM
  Raw Data: 146640
CCR4 [2]; 10 nM CCL22, 0.023 uM
  Raw Data: 154833
CCR4 [2]; 10 nM CCL22, 0.1 uM
  Raw Data: 154951
CCR4 [2]; 10 nM CCL22, 0.2 uM
  Raw Data: 151383
CCR4 [2]; 10 nM CCL22, 0.6 uM
  Raw Data: 163219
CCR4 [2]; 10 nM CCL22, 1.9 uM
  Raw Data: 153353
CCR4 [2]; 10 nM CCL22, 5.6 uM
  Raw Data: 145586
CCR4 [2]; 10 nM CCL22, 16.7 uM
  Raw Data: 127180
CCR4 [2]; 10 nM CCL22, 50 uM
  Raw Data: 119853
